Article PMC8371249

How the values were obtained:
[1] = molecular target: apo-SufR (clusterless Mtb SufR, Rv1460) (Mycobacterium tuberculosis); experiment: SEC
[2] = molecular target: holo-SufR (Mtb SufR, Rv1460, with its 4Fe–4S cluster) (Mycobacterium tuberculosis); experiment: SEC

Row | Substance | stoichiometry N [1] | stoichiometry N [2]
1 | apo-SufR (clusterless Mtb SufR, Rv1460) (natural protein) | 2 | –
2 | holo-SufR (Mtb SufR, Rv1460, with its 4Fe–4S cluster) (natural protein) | – | 2
